Results from patent publication US5985836A, “Alpha-1 proteinase inhibitor binding peptides” (Bayer Corporation, priority 1998, dated 1999).

Legend:
A1PI [1] = molecular target: T1, A1PI (Homo sapiens, UniProt P01009); test: A1PI binding on peptide-resin column, injection of 1 mg A1PI in equilibration buffer; settings: VIFLVR point mutations, 1 mg A1PI
T1 construct: Human plasma is currently the only approved source of therapeutic AlPI
Procedure: Confirmatory binding assays were performed in a column chromatographic format on a microbore HPLC using individual peptide sequences synthesized directly onto the Toyopearl 650 M Chelate resin which had been modified with Totda followed by an alanine residue (A-Totda-Toyopearl), at a final substitution density of 0.1 mmole/g resin. The resin was packed into 0.4×5 cm columns (Thomson, Springfield, Va.) and tested on the Michrom HPLC system (Michrom BioResources, Auburn, Calif.). The elution program for all trials utilized the following method. The column was pre-equilibrated with equilibration buffer (as above). 1 ml of sample was injected and allowed sufficient time to flowthrough the column using equilibration buffer. The column was then washed with step elutions of 1M NaCl and 3M NaCl in equilibration buffer. The column was exposed to equilibration buffer with 0.1M NaCl. Any remaining protein was eluted with elution buffer (2% by volume glacial acetic acid in water).
A Gilson FC204 fraction collector at the HPLC outlet collected individual eluates for further analysis. Fractions collected from the 2% acetic acid eluates were neutralized with 2M Tris, pH 10.5 to bring the pH to neutrality. The protein samples were reconstituted in equilibration buffer unless otherwise stated. The samples were analyzed by the integration of the absorbance at 280 nm or by immunonephelometry. The specific method of determination is presented for each figure.
Tables 2 and 3 present the elution profiles for 19 sequences based on the injection of 1 mg AlPI in equilibration buffer at 4° C. and 20° C., respectively. The columns were run at a constant flow rate of865 μl/min (413 cm/hr) or 523 μl/min (250 cm/hr). No dependence of the elution profile with flow rate was found. The Percent AlPI Eluted by Fraction represents the amount eluted in the flowthrough, 1M NaCl wash, and 2% acetic acid fractions relative to the total AlPI eluted. The percentages are based on either the integration of the peak areas at […]

A1PI [2] = molecular target: T1, A1PI; test: Purification of A1PI from Effluent II+III on peptide column, A1PI mass balance; assay type: binding; settings: Table 13, 1 ml Eff. II+III, 4° C.; for Mass A1PI per Eluate Fraction, 1M NaCl / Mass A1PI per Eluate Fraction, 2% Acetic Acid / Mass A1PI per Eluate Fraction, Flowthrough: * Below detection limit; for Percent Eluted by Fraction, 1M NaCl / Percent Eluted by Fraction, 2% Acetic Acid / Percent Eluted by Fraction, Flowthrough: A1PI
Procedure: Sequences 1-11 and 15 were assayed with Effluent II+III (Eff. II+III). Eff. II+III is a process intermediate in the Cohn plasma fractionation process. The feed stream contains 20% (by volume) ethanol, 20-25 mg/ml hSA and approximately 1 mg/ml AlPI. The stream also contains other proteins including anti-thrombin III (AT3), immunoglobin G (IgG), immunoglobin A (IgA), apolipoprotein alpha-1 (Apo A-1), transferrin (Trf), haptoglobin (Hpt), and alpha-1 acid glycoprotein (AAG) at concentrations ranging from 0.1-1 mg/ml.
The columns were assayed using the same technique as the hSA+AlPI experiments, allowing for a 10 minute residence time followed by a constant flow rate of 865 μl/min with step elutions of 1M NaCl, 3M NaCl, and 2% acetic acid. All experiments were conducted at 4° C. The mass balances for the injection of 1 ml Eff. […] The AlPI was enriched from 3% of the total protein in the feed to upwards of 50% in the acid eluate.

T1 sequence (P01009 25-418): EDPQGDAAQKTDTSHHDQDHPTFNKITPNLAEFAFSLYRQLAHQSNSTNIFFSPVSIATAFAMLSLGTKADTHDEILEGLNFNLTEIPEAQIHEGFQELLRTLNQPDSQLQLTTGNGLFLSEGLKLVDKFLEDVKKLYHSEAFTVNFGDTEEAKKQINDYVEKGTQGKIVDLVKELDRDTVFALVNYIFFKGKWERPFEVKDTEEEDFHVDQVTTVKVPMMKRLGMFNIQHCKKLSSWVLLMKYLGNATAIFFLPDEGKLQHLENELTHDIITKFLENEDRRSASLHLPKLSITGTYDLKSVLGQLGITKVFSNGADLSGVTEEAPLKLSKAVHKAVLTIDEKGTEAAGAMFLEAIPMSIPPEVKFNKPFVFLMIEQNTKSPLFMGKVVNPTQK

Row | Substance | % of Total A1PI Eluted by Fraction (Based on Absorbance at 280 nm), 1M NaCl (A1PI [1]; 4° C.) [%] | % of Total A1PI Eluted by Fraction (Based on Absorbance at 280 nm), 2% Acetic Acid (A1PI [1]; 4° C.) [%] | % of Total A1PI Eluted by Fraction (Based on Absorbance at 280 nm), Flowthrough (A1PI [1]; 4° C.) [%] | % of Total A1PI Eluted by Fraction (Based on Absorbance at 280 nm), 1M NaCl (A1PI [1]; 20° C.) [%] | % of Total A1PI Eluted by Fraction (Based on Absorbance at 280 nm), 2% Acetic Acid (A1PI [1]; 20° C.) [%] | % of Total A1PI Eluted by Fraction (Based on Absorbance at 280 nm), Flowthrough (A1PI [1]; 20° C.) [%] | Mass A1PI per Eluate Fraction, 1M NaCl (A1PI [2]) [mg] | Mass A1PI per Eluate Fraction, 2% Acetic Acid (A1PI [2]) [mg] | Mass A1PI per Eluate Fraction, Flowthrough (A1PI [2]) [mg] | Percent Eluted by Fraction, 1M NaCl (A1PI [2]) [%] | Percent Eluted by Fraction, 2% Acetic Acid (A1PI [2]) [%] | Percent Eluted by Fraction, Flowthrough (A1PI [2]) [%]
1 | A I F L V R: point mutation of VIFLVR, position 1 (AIFLVR) | 4 | 96 | 0 | 3 | 92 | 5 | 0.07 | 0.59 | 0.33 | 7 | 60 | 33
2 | H I F L V R: point mutation of VIFLVR, position 1 (HIFLVR) | 3 | 97 | 0 | 7 | 93 | 0 | 0.08 | 0.54 | 0.16 | 10 | 69 | 21
3 | K I F L V R: point mutation of VIFLVR, position 1 (KIFLVR) | 3 | 97 | 0 | 0 | 100 | 0 | 0.03 | 0.51 | 0.32 | 3 | 59 | 38
4 | R I F L V R: point mutation of VIFLVR, position 1 (RIFLVR) | 0 | 100 | 0 |  |  |  |  | 0.50 | 0.24 | 0 | 67 | 33
5 | S I F L V R: point mutation of VIFLVR, position 1 (SIFLVR) | 7 | 93 | 0 | 6 | 81 | 13 | 0.04 | 0.52 | 0.61 | 3 | 44 | 52
